T1: cyno PMEL17 (cyno, UniProt A0A2K5WWN0 25-668)
T1 construct: whole, on cells; also called HKB11-cyno; HKB11-cyno-PMEL17
T1 sequence: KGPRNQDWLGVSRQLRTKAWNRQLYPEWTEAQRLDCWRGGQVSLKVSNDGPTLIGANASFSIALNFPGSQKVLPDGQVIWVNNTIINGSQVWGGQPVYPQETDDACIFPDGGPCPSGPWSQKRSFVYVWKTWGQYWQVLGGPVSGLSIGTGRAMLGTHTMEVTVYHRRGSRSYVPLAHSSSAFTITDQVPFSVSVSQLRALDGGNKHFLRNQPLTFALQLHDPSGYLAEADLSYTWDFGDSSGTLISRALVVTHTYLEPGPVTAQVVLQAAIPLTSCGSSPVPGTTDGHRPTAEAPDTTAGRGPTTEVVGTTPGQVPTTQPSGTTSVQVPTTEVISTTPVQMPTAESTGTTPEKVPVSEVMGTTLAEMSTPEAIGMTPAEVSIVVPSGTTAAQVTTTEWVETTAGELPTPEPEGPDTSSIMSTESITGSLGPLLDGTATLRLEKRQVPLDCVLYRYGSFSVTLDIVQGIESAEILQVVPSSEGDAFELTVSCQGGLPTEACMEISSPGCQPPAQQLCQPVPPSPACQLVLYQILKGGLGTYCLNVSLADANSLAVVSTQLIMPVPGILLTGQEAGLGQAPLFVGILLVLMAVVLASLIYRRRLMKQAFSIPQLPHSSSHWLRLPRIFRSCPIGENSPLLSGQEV

T2: mouse PMEL17 (mouse, UniProt Q60696 24-626)
T2 construct: whole, on cells; also called B16-F10 (mouse)
T2 sequence (looked up): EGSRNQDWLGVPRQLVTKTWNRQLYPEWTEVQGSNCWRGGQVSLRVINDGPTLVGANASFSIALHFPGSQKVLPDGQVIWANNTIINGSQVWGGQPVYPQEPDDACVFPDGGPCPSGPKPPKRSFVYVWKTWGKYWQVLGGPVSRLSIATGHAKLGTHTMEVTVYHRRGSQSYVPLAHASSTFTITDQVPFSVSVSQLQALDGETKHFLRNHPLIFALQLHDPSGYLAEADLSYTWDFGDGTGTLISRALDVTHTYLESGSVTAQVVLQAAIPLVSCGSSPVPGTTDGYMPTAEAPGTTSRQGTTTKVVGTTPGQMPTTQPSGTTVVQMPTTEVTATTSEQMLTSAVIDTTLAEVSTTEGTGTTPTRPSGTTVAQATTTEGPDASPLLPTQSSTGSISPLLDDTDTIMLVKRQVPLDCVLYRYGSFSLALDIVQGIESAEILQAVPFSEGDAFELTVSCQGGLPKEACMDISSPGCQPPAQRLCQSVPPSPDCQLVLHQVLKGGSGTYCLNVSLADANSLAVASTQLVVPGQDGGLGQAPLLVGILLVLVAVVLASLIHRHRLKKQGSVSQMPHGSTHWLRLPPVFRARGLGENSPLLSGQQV


Columns and labels:
[1] = molecular target: rat PMEL17 (rat, UniProt D3ZED8 73-680); test: FACS titration of IgG on HKB11-rat PMEL17 cells, Alexa Fluor detection antibody
Sequence of rat PMEL17 (D3ZED8 entry or part of it): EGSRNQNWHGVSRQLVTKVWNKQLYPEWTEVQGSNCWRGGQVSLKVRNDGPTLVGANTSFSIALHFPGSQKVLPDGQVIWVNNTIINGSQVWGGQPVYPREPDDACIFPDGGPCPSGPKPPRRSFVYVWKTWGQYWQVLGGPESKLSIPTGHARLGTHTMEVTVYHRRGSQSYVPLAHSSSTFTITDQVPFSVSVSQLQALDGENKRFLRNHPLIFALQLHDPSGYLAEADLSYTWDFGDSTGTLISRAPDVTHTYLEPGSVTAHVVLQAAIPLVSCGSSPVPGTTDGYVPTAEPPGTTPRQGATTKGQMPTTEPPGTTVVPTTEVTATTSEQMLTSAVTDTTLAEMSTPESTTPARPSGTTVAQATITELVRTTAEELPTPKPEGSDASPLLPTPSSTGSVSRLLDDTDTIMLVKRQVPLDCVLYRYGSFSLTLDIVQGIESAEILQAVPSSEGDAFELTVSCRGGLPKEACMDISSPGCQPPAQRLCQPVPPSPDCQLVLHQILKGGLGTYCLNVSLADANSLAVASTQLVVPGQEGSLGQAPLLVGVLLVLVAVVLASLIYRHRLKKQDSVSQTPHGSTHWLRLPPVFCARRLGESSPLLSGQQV
Procedure: (§1) Purified IgGs were titrated on a variety of PMEL17 expressing and PMEL17 non expressing cell lines (for control) to determine EC50 values. Cells were harvested using Accutase, adjusted to ˜4×10^6 cells/ml into FACS buffer (PBS, 3% FCS and 0.02% Na-Azide) and kept on ice to avoid internalization. 15 μl of cell suspension/well were transferred into 384 well V-bottom plates (Greiner, Cat #781280) and incubated with 15 μl of IgGs at different concentrations (most commonly from 200 to 3.5×10-3 nM) for 1 hour at 4° C., gently shaking. Following incubation, cells were washed three times with FACS buffer. After each washing step, cells were centrifuged (250×g, 5 min, 4° C.) and carefully resuspended. 15 p of detection antibody conjugated to PE (PE-conjugated goat anti-human IgG, F(ab′)₂ fragment specific, 1:150 in FACS buffer; Jackson Immuno Research, #109-116-097) or Alexa Fluor (Alexa Fluor-conjugated goat anti-human IgG, F(ab′)2 fragment specific, 1:150 in FACS buffer; Jackson Immuno Research, #109-606-097) were added and samples were incubated for 45 minutes to 1 hour on ice in the dark, gently shaking. After 3 washing steps, cells were resuspended in 30 μl of FACS buffer and samples were measured using the IntelliCyt HTFC device. EC50 values were calculated using the Graphpad Prism software.

[2] = molecular target: T1, cyno PMEL17; test: FACS titration of IgG on HKB11-cyno-PMEL17 cells, Alexa Fluor detection antibody
Procedure: as §1

[3] = molecular target: T2, mouse PMEL17; test: FACS titration of IgG on B16-F10 cells (mouse melanoma), Alexa Fluor detection antibody
Procedure: as §1

EC50 [1] [nM]	EC50 [2] [nM]	EC50 [3] [nM]	Binder
21.7	2	140	Y010906 (antibody, V domains shown, Tested as purified human IgG) VH: EVQLVESGGGLVKPGGSLRLSCAASGFTFSNAWMSWVRQAPGKGLEWVGRIKSKTDAGTTDYAAPVKGRFTISRDDSKNTLYLQMNSLKTEDTAVYYCARDEYPWGWFDVWGQGTLVTVSS VL: DIQMTQSPSSVSASVGDRVTITCRASQGISSWLAWYQQKPGKAPKLLIYAASSLQSGVPSRFSGSGSGTDFTLTISSLQPEDFATYYCQQYIFYPLTFGQGTKVEIK
13.7	3.5	41.1	Y010910 (antibody, V domains shown, Tested as purified human IgG) VH: EVQLVESGGGLVKPGGSLRLSCAASGFTFSNAWMSWVRQAPGKGLEWVGRIKSKTDAGTTDYAAPVKGRFTISRDDSKNTLYLQMNSLKTEDTAVYYCARVASPSAPGGFDYWGQGTLVTVSS VL: DIQMTQSPSSLSASVGDRVTITCRASQGISNYLAWYQQKPGKVPKLLIYAASTLQSGVPSRFSGSGSGTDFTLTISSLQPEDVATYYCQQSLFAPFTFGQGTKVEIK
	6.3		Y010417 (antibody, V domains shown, Tested as purified human IgG) VH: EVQLVQSGAEVKKPGESLKISCKGSGYSFTSYWIGWVRQMPGKGLEWMGIIYPGDSDTRYSPSFQGQVTISADKSISTAYLQWSSLKASDTAMYYCARGSSAASGLSGDLWGQGTLVTVSS VL: DIQMTQSPSSLSASVGDRVTITCRASQSISSYLNWYQQKPGKAPKLLIYAASSLQSGVPSRFSGSGSGTDFTLTISSLQPEDFATYYCQQDYYSPFTFGQGTKVEIK
0.4	5.4		Y010415 (antibody, V domains shown, Tested as purified human IgG) VH: not shown VL: DIQMTQSPSSLSASVGDRVTITCRASQSISSYLNWYQQKPGKAPKLLIYAASSLQSGVPSRFSGSGSGTDFTLTISSLQPEDFATYYCQQVYGSPPTFGQGTKVEIK
9.3	1.2		Y010900 (antibody, V domains shown, Tested as purified human IgG) VH: EVQLVESGGGLVKPGGSLRLSCAASGFTFSNAWMSWVRQAPGKGLEWVGRIKSKTDAGTTDYAAPVKGRFTISRDDSKNTLYLQMNSLKTEDTAVYYCARTIYPSAPSSSLDYWGQGTLVTVSS VL: DIQMTQSPSSLSASVGDRVTITCRASQGISNYLAWYQQKPGKVPKLLIYAASTLQSGVPSRFSGSGSGTDFTLTISSLQPEDVATYYCQQLIFFPLTFGQGTKVEIK
5.6	2	928	Y010903 (antibody, V domains shown, Tested as purified human IgG) VH: EVQLVESGGGLVKPGGSLRLSCAASGFTFSNAWMSWVRQAPGKGLEWVGRIKSKTDAGTTDYAAPVKGRFTISRDDSKNTLYLQMNSLKTEDTAVYYCARASHRLHSLFDVWGQGTLVTVSS VL: DIQMTQSPSTLSASVGDRVTITCRASQSISSWLAWYQQKPGKAPKLLIYDASSLESGVPSRFSGSGSGTEFTLTISSLQPEDFATYYCQQGLFYPHTFGQGTKVEIK
0.8	3.9	0.8	Y010355 (antibody, V domains shown, Tested as purified human IgG) VH: EVQLVESGGGLVKPGGSLRLSCAASGFTFSNYWISWVRQAPGKGLEWVGRIKSKTYGGTTDYAEPVKGRFTISRDDSKNTLYLQMNSLKTEDTAVYYCARTSRRSYAFDYWGQGTLVTVSS VL: DIQMTQSPSTLSASVGDRVTITCRASQSISSWLAWYQQKPGKAPKLLIYDASSLESGVPSRFSGSGSGTEFTLTISSLQPEDFATYYCQQITRYPVTFGQGTKVEIK
1.5	10.7	60.2	Y010429 (antibody, V domains shown, Tested as purified human IgG) VH: not shown VL: DIQMTQSPSSLSASVGDRVTITCRASQSISSYLNWYQQKPGKAPKLLIYAASSLQSGVPSRFSGSGSGTDFTLTISSLQPEDFATYYCQQVWYAPVTFGQGTKVEIK
7.5	1.6		MOR024353 (antibody, V domains shown, Tested as purified human IgG) VH: QVQLVQSGAEVKKPGSSVKVSCKASGGTFSDYAISWVRQAPGQGLEWMGGIIPIFGDANYAQKFQGRVTITADESTSTAYMELSSLRSEDTAVYYCAREGSSYFYMAYWGQGTLVTVSS VL: SYELTQPLSVSVALGQTARITCSGDNIGSKLASWYQQKPGQAPVLVIYDDSNRPSGIPERFSGSNSGNTATLTISRAQAGDEADYYCAATAGDRWAYVFGGGTKLTVL
1.4	4.5	1.4	Y010356 (antibody, V domains shown, Tested as purified human IgG) VH: EVQLVESGGGLVKPGGSLRLSCAASGFTFSNYWISWVRQAPGKGLEWVGRIKSKTYGGTTDYAEPVKGRFTISRDDSKNTLYLQMNSLKTEDTAVYYCARVSGYYSHSGGFDVWGQGTLVTVSS VL: DIQMTQSPSSLSASVGDRVTITCRASQGISNYLAWYQQKPGKVPKLLIYAASTLQSGVPSRFSGSGSGTDFTLTISSLQPEDVATYYCQKTWRTPGTFGQGTKVEIK
2.4	2.1		MOR024354 (antibody, V domains shown, Tested as purified human IgG) VH: QVQLLESGGGLVQPGGSLRLSCAASGFTFSSFGMSWVRQAPGKGLEWVSAISYSGSDTYYADSVKGRFTISRDNSKNTLYLQMNSLRAEDTAVYYCARDVGVMDYWGQGTLVTVSS VL: SYELTQPLSVSVALGQTARITCSGDNLGTYYAHWYQQKPGQAPVLVIYSQSHRPSGIPERFSGSNSGNTATLTISRAQAGDEADYYCGAWDAPSPELVFGGGTKLTVL
